From US20260167959A1, “APTAZYME-BASED REGULATABLE GENE EXPRESSION SYSTEMS” (REJUVENATE BIO INC, priority 2022, published 2026)
Positions count from the first letter of the chain named.

B1: RA434 (nucleic acid)
DNA: GCGCGTCCAGAATACCAGCATCGTCTTGATGCCCTTGGAAGTCTTGGATTCGCGGAAACGCGTACATCCAGCTGACGAGTCCCAAATAGGACGAAACGCGC
modifications: expressed or natural sequence
B2: RA449 (nucleic acid)
DNA: GCGCGTCCTGGATTCGCGGAAACGCGTACATCCAGCTGACGAGTCCCAAATAGGACGAAACGCGAGTGATACCAGCATCGTCTTGATGCCCTTGGCAGCACTC
modifications: expressed or natural sequence
B3: RA430 (nucleic acid)
DNA: GCGCGTCCTGGATTCGCGGAAACGCGTACATCCAGCTGAGAGAATACCAGCATCGTCTTGATGCCCTTGGAAGTCTCCGAGTCCCAAATAGGACGAAACGCGC
modifications: expressed or natural sequence
B4: RA436 (nucleic acid)
DNA: GCGCGTCCTGGATTCGCGGAAACGCGTACATCCAGCGGAATACCAGCATCGTCTTGATGCCCTTGGAAGTCCGCTGACGAGTCCCAAATAGGACGAAACGCGC
modifications: expressed or natural sequence
B5: RA433 (nucleic acid)
DNA: GCGCGTCCTGGATTCGCGGAAACGCGTACATCCAGCTGACGAGTCCCAAATAGGAAGTGATACCAGCATCGTCTTGATGCCCTTGGCAGCACTCGAAACGCGC
modifications: expressed or natural sequence
B6: RA443 (nucleic acid)
DNA: B5 DNA with A56C, T58G, G59A, C87A, C90T, A91C, T93G
modifications: expressed or natural sequence
B7: RA442 (nucleic acid)
DNA: GCGCGTCCTGGATTCGCGGAAACGCGTACATCCGGAATACCAGCATCGTCTTGATGCCCTTGGAAGTCCGCAGCTGACGAGTCCCAAATAGGACGAAACGCGC
modifications: expressed or natural sequence
B8: RA441 (nucleic acid)
DNA: GCGCCCGGAATACCAGCATCGTCTTGATGCCCTTGGAAGTCCGGGTCCTGGATTCGCGGAAACGCGTACATCCAGCTGACGAGTCCCAAATAGGACGAAACGCGC
modifications: expressed or natural sequence
B9: RA438 (nucleic acid)
DNA: GCGCGTCCTGGATTCGCGGAAACGCGTACATCCAGCTGACGAGTCCCAAATAGGACGCGGAATACCAGCATCGTCTTGATGCCCTTGGAAGTCCGAAACGCGC
modifications: expressed or natural sequence
B10: RA447 (nucleic acid)
DNA: GCGCGTCCTGGATTCGCGGAAACGCGTACATCCAGCTGACGAGTCCGGAATACCAGCATCGTCTTGATGCCCTTGGAAGTCCCAAATAGGACGAAACGCGC
modifications: expressed or natural sequence
B11: RA454 (nucleic acid)
DNA: B10 DNA with G47A, C82T
modifications: expressed or natural sequence
B12: RA431 (nucleic acid)
DNA: GCGCGTCCTGGATTCGCGGAAACGCGTACATCCACGGAATACCAGCATCGTCTTGATGCCCTTGGAAGTCCGGCTGACGAGTCCCAAATAGGACGAAACGCGC
modifications: expressed or natural sequence
B13: RA432 (nucleic acid)
DNA: GCGCGTCCTGGATTCGCGGAAACGCGTACATCCAGCTGACGAGTCCCACCGGAATACCAGCATCGTCTTGATGCCCTTGGAAGTCCGGAATAGGACGAAACGCGC
modifications: expressed or natural sequence
B14: RA451 (nucleic acid)
DNA: GCGCGTCCTGGATTCGCGGAAGAATACCAGCATCGTCTTGATGCCCTTGGAAGTCTAACGCGTACATCCAGCTGACGAGTCCCAAATAGGACGAAACGCGC
modifications: expressed or natural sequence
B15: RA450 (nucleic acid)
DNA: GCGCGTCCTGGATTCGCGGAAACGCGTACATCCAGCTGACGAGTCCCAAATAGGACGAAACCCGGAATACCAGCATCGTCTTGATGCCCTTGGAAGTCCGGGCGC
modifications: expressed or natural sequence
B16: RA440 (nucleic acid)
DNA: GCGCGTCCTGGATTCGCGGAAACGCGTACATCCAGCTGACGAGTCCCAAATAGGACGAAACGCCGGAATACCAGCATCGTCTTGATGCCCTTGGAAGTCCGGC
modifications: expressed or natural sequence
B17: RA044 (nucleic acid)
DNA: GCGGAGAATACCAGCATCGTCTTGATGCCCTTGGAAGTCTCCGTCCTGGATTCGCGGAAACGCGTACATCCAGCTGACGAGTCCCAAATAGGACGAAACGCGC
modifications: expressed or natural sequence
B18: RA446 (nucleic acid)
DNA: GCGCGTCCTGGATTCCGGAATACCAGCATCGTCTTGATGCCCTTGGAAGTCCGGCGGAAACGCGTACATCCAGCTGACGAGTCCCAAATAGGACGAAACGCGC
modifications: expressed or natural sequence
B19: RA444 (nucleic acid)
DNA: GCGCGTCCCGGAATACCAGCATCGTCTTGATGCCCTTGGAAGTCCGGCTGGATTCGCGGAAACGCGTACATCCAGCTGACGAGTCCCAAATAGGACGAAACGCGC
modifications: expressed or natural sequence
B20: RA448 (nucleic acid)
DNA: GCGCGCGGAATACCAGCATCGTCTTGATGCCCTTGGAAGTCCGTCCTGGATTCGCGGAAACGCGTACATCCAGCTGACGAGTCCCAAATAGGACGAAACGCGC
modifications: expressed or natural sequence
B21: RA439 (nucleic acid)
DNA: GCGCGTGAGAATACCAGCATCGTCTTGATGCCCTTGGAAGTCTCCCTGGATTCGCGGAAACGCGTACATCCAGCTGACGAGTCCCAAATAGGACGAAACGCGC
modifications: expressed or natural sequence
B22: RA435 (nucleic acid)
DNA: GCGCGTCCTGGATTCGCGGAAACGCGTACATCCAGCTGACGAGTCCCAAACGGAATACCAGCATCGTCTTGATGCCCTTGGAAGTCCGTAGGACGAAACGCGC
modifications: expressed or natural sequence
B23: RA043 (nucleic acid)
DNA: GCGCGTCCTCGAGAATACCAGCATCGTCTTGATGCCCTTGGAAGTCTCGGGATTCGCGGAAACGCGTACATCCAGCTGACGAGTCCCAAATAGGACGAAACGCGC
modifications: expressed or natural sequence
B24: RA445 (nucleic acid)
DNA: GCGCGTCGAGAATACCAGCATCGTCTTGATGCCCTTGGAAGTCTCCTGGATTCGCGGAAACGCGTACATCCAGCTGACGAGTCCCAAATAGGACGAAACGCGC
modifications: expressed or natural sequence
B25: RA437 (nucleic acid)
DNA: GCGCGTCCTGGATTCGCGGAAACGCGTACATCCAGCTGACGAGTCCCAAGAATACCAGCATCGTCTTGATGCCCTTGGAAGTCTAATAGGACGAAACGCGC
modifications: expressed or natural sequence
B26: RA453 (nucleic acid)
DNA: GCGCGTCCTGGATTCGCGGAAACGCGTACATCCAGCTGACGAGTCCCAAATAGGACGAAACAGAATACCAGCATCGTCTTGATGCCCTTGGAAGTCTGCGC
modifications: expressed or natural sequence
B27: RA452 (nucleic acid)
DNA: GCGCGTCCTGGAGAATACCAGCATCGTCTTGATGCCCTTGGAAGTCTATTCGCGGAAACGCGTACATCCAGCTGACGAGTCCCAAATAGGACGAAACGCGC
modifications: expressed or natural sequence

Test system: Renilla luciferase RNA
Assay: Barcoded aptazyme variant library screen: un-cleaved Renilla luciferase RNA by barcode read counts, HEK293-T cells
Assay type: cell-based
Details: triplicate
Summary of the method: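 Aptazyme variants (seven theophylline aptamers inserted after each T3H48 ribozyme nucleotide, 9-nt barcoded) cloned into the 3′ UTR of Renilla luciferase in psiCHECK-2; cells cultured ± theophylline, in triplicate. RNA and DNA barcodes amplified and sequenced; normalized read counts gave un-cleaved RNA fraction and ON/OFF fold-change.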

[1] = un-cleaved Renilla luciferase RNA by barcode read counts, with 1 mM theophylline (ON) over without theophylline (OFF), HEK293-T cells
[2] = un-cleaved Renilla luciferase RNA, HEK293-T cells cultured with 1 mM theophylline (ON) over without theophylline (OFF), barcode read counts

Molecule | Fold change in RNA expression between the ON state and the OFF state [1] | Fold change in RNA expression between the ON state and the OFF state [2]
B1 | 0.6 | –
B2 | 0.5 | –
B3 | 0.6 | –
B4 | 0.6 | –
B5 | 0.6 | –
B6 | 0.6 | –
B7 | 0.6 | –
B8 | 0.6 | –
B9 | 0.6 | –
B10 | 0.5 | –
B11 | 0.5 | –
B12 | 0.6 | –
B13 | 0.6 | –
B14 | 0.5 | –
B15 | 0.5 | –
B16 | 0.6 | –
B17 | – | 2.1 fold
B18 | 0.5 | –
B19 | 0.6 | –
B20 | 0.5 | –
B21 | 0.6 | –
B22 | 0.6 | –
B23 | – | 2.1 fold
B24 | 0.5 | –
B25 | 0.6 | –
B26 | 0.5 | –
B27 | 0.5 | –
